Laboratory results reported in paper PMC4837003.
Read-outs that look alike come from different tables or passages of the source.

Columns and labels:
[1] = target: HLA-A*0201 heavy chain with β2-microglobulin; test: differential scanning fluorimetry
[2] = target: HLA-DR1 (DRA*0101/DRB*010101), soluble extracellular domains (human)
[3] = target: HLA-DR1 (DRA*0101/DRB*010101), soluble extracellular domains (human); remark: listed apart in the source
[4] = target: HLA-DR1 (DRA*0101/DRB*010101), soluble extracellular domains (human); test: differential scanning fluorimetry
[5] = target: HLA-A*0201 heavy chain with β2-microglobulin; test: circular dichroism

Molecule	apparent Tm by DSF [1] [°C]	apparent Tm by CD [5] [°C]	further results
SL9 peptide	59		
tyrosinase peptide (TYR)	67.3		
NS3_(1406(7N)-1415) peptide	55.8		
influenza HA peptide			apparent Tm by DSF [2]: 83 °C; apparent Tm by DSF [3]: 82.1 °C
YRAL [Min4 peptide]			other [4]: 67.8 °C
ALGIGILTV [MART-1_(27(2L)-35) peptide]	59.2	51	half-life of the complex (slowest phase, peptide dissociation) [1]: 6.9 h
LGYGFVNYI [HUD peptide]	44.8		
IMDQVPFSV [gp100_(209(2M)-217) peptide]	62.2		
YMDGFMSQV [TYR (T5F) peptide]	61.4	63	
LLYGFVNYV [HUD_(87(2L,9V)-95) peptide]	65.1	63	
